Values joined by “and” are separate entries in the source; they are usually repeats but may differ in a detail not shown here. Equal values may be shown once. Where a name gives a salt, the structure may show the parent alone. Read-outs that look alike come from different tables or passages of the source.

Series [1] in a line: Thermostability of solubilised adenosine A2a receptor and mutants (radioligand binding after or during heating). The series is classed as physicochemical. The text has this:
FIG. 12 Flow chart showing the two different assay formats of ligand (+) and ligand (−) used to determine receptor thermostablity.
• 1. 315 site-directed mutants made between residues 2-316 of A2aR. • 2. All of these mutants have been assayed for thermostability using an assay measuring agonist and antagonist binding after the heating step (Ligand(−) format as described in FIG. 12). • a. […] Mutations have been combined to generate mutants in a putative antagonist conformation. Wildtype A2aR has a Tm of 31° C. with ZM241385 bound. • a. Rant17 A54L+K122A+L235A Tm 48° C. (ZM241385 bound) • b. Rant19 A54L,T88A,V239A+A204L Tm 47° C. (ZM241385 bound) • c. Rant21 A54L,T88A,V239A+K122A Tm 49° C. (ZM241385 bound) • 4. Mutations from the agonist screen have been combined, but have led to only a very low level of improvement in Tm of +2° C.

Series [2] is described as follows: Stability of wild-type and mutant A2aR in different detergents. The series is classed as physicochemical.
The nature of series [3]: Stability of βAR-m23 and βAR34-424 in different detergents (Ni-NTA partially purified). The series is classed as physicochemical. How it is done: FIGS. 6A-6C Stability of βAR-m23 and βAR34-424 in five different detergents. […] Assays were carried out as described in the Methods and the Tm is shown at the intersection between the curves and the discontinuous line. Results are from duplicate measurements in a representative experiment performed in parallel.
Membranes prepared from E. coli expressing βAR-m23 or βAR34-424 were solubilised in DDM, bound to Ni-NTA agarose then washed with either DDM, decylmaltoside (DM), octylglucoside (OG), lauryldimethylamine oxide (LDAO) or nonylglucoside (NG). […] In contrast, functional βAR-m23 was still present in all detergents and the Tm could be determined. As expected, the smaller detergents were considerably more denaturing than either DDM (Tm 52° C.) or DM (Tm 48° C.), with Tms of 25° C. (NG), 23° C. (LDAO) and 17° C. (OG). The difference in Tm between βAR-m23 and βAR34-424 is about 20° C., irrespective of whether the receptors were solubilised in either DDM or DM; […] . The selection strategy used for the generation of βAR-m23 was chosen deliberately to be based upon thermostability, because it is far simpler to apply than selecting for stability in detergents of increasing harshness.
Receptors were eluted in 2×100 μl of buffer (0.4 M NaCl, 1 mM EDTA, 250 mM imidazole pH 8, plus the relevant detergent). […] .
Single point binding assays contained 20 mM Tris pH 8, 0.4 M NaCl, 1 mM EDTA, 0.1% DDM (or corresponding detergent) with 50 nM [^3H]-DHA and 20-100 μg membrane protein in a final volume of 120 μl; equilibration was for 1 h at 4° C. Thermostability was assessed by incubating the binding assay mix, with or without [^3H]-DHA at the specified temperature for 30 minutes; reactions were placed on ice and [^3H]-DHA added as necessary and equilibrated for a further hour. Receptor-bound and free radioligand were separated by gel filtration as described previously. Non-specific binding was determined in the presence of 1 μM of s-propranolol. […] Radioactivity was counted on a Beckman LS6000 liquid scintillation counter and data were analyzed by nonlinear regression using Prism software (GraphPad).

Series [4] in a line: Thermostability assay of detergent-solubilised βAR34-424 and mutants expressed in E. coli ([3H]-DHA binding after heating 30 min). Conditions: for increase in Tm compared to βAR34-424 (native protein) / Tm (° C.): DDM-solubilised; for increase in Tm compared to βAR34-424 (native protein): heated without ligand; for Tm (° C.): heated 30 min without ligand, then [3H]-DHA binding, E. coli, mean ± S.E. from duplicates.
Protocol: To determine Tm in the absence of ligand (apo-state, discontinuous lines), detergent-solubilised receptors were incubated for 30 minutes at the temperatures indicated before carrying out the binding assay. […] Data points are from duplicates measurements in a representative experiment.
Binding assays were performed using [^3H]-dihydroalprenolol (DHA) as radioligand as described under “Methods”. Samples were heated for 30 minutes at different temperatures before the assay. […] Data points are from duplicates of one single experiment. This experiment has been repeated several times with similar results.
Expression of βAR and the mutants was performed in XL10 cells (Stratagene). Cultures of 50 ml of 2×TY medium containing ampicillin (100 μg/ml) were grown at 37° C. with shaking until OD600=3 and then induced with 0.4 mM IPTG. Induced cultures were incubated at 25° C. for 4 h and then cells were harvested by centrifugation at 13,000×g for 1 min (aliquots of 2 ml) and stored at −20° C. For the assays, cells were broken by freeze-thaw (five cycles), resuspended in 500 μl of buffer [20 mM Tris pH 8, 0.4 M NaCl, 1 mM EDTA and protease inhibitors (Complete™, Roche)]. After an incubation for 1 h at 4° C. with 100 μg/ml lysozyme and DNase I (Sigma), samples were solubilized with 2% DDM on ice for 30 minutes. Insoluble material was removed by centrifugation (15,000×g, 2 min, 4° C.) and the supernatant was used directly in radioligand binding assays.
Single point binding assays contained 20 mM Tris pH 8, 0.4 M NaCl, 1 mM EDTA, 0.1% DDM (or corresponding detergent) with 50 nM [^3H]-DHA and 20-100 μg membrane protein in a final volume of 120 μl; equilibration was for 1 h at 4° C. Thermostability was assessed by incubating the binding assay mix, with or without [^3H]-DHA at the specified temperature for 30 minutes; reactions were placed on ice and [^3H]-DHA added as necessary and equilibrated for a further hour. […] Radioactivity was counted on a Beckman LS6000 liquid scintillation counter and data were analyzed by nonlinear regression using Prism software (GraphPad).

For series [5], the target named is T1, βAR-m23 (Meleagris gallopavo, UniProt P07700, A282L/C116L/F327A/F338M/M90V/R68S/Y227A). Briefly: biochemical. The format is binding, turkey.
T1 sequence (P07700 34-424 R68S/M90V/C116L/Y227A/A282L/F327A/F338M): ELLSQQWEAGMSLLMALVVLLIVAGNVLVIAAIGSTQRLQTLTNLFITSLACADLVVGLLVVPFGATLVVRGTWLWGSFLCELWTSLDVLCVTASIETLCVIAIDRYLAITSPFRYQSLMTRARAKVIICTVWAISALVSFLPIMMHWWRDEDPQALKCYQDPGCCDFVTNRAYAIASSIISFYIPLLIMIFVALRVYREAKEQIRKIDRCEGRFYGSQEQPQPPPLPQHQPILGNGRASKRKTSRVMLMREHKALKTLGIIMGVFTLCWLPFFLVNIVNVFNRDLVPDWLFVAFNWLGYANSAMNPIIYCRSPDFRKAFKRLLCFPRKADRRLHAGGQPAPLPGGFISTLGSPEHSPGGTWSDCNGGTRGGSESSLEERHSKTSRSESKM
The target in series [6] is T1, βAR-m23. The format is binding, turkey.
[7] abbreviates: 1% DDM (no glycerol), apo-state, S.D. <1° C.
Setting [8] is: 1% DDM (no glycerol), ligand-occupied state, S.D. <1° C.
The mark [9] stands for this setting: 0.3% NG, † = receptor too unstable to determine the Tm.
Where [10] appears, read: 0.6% OG, † = receptor too unstable to determine the Tm.
[11] abbreviates: [3H]-DHA bound during the heating step.

With “wt: wild-type human adenosine A2a receptor (A2aR)”, the “Tm (° C.) − agonist” value in series [1] (setting [7]) is 21 °C. The “Tm (° C.) − antagonist” value in series [1] (setting [7]) stood at 31 °C. The “Tm (° C.) + agonist” value in series [1] (setting [8]) was determined as 29 °C. The “Tm (° C.) + antagonist” value in series [1] (setting [8]) turned out to be 32 °C. Also, in series [1], the “Tm (ZM241385 bound)” value stood at 31 °C. Besides, the “Tm (° C.) Agonist-binding” value in series [2] (0.003% LDAO) is 28 °C; in series [2] (0.006% FC12), 37 °C; in series [2] (0.01% DDM), 27 °C; in series [2] (0.1% DM), 23 °C; in series [2] (setting [9]), “†”; in series [2] (0.3% NM), 22 °C. Further, the “Tm (° C.) Agonist-binding” value in series [2] (0.6% OG) is less than 9 °C. Also, the “Tm (° C.) Antagonist-binding” value in series [2] (0.003% LDAO) is 32 °C; in series [2] (0.006% FC12), 43 °C; in series [2] (0.01% DDM), 25 °C; in series [2] (0.1% DM), 10 °C; in series [2] (setting [9]), “†”; in series [2] (0.3% NM) it was less than 4 °C. Also, in series [2] (setting [10]), the “Tm (° C.) Antagonist-binding” value is on record as “†”.

Regarding “m23: βAR34-424 with R68S, M90V, Y227A, A282L, F327A, F338M”, the “Tm in DDM” value in series [3] (DDM) amounted to 52 °C. The “Tm in DM” value in series [3] (DM (decylmaltoside)) came to 48 °C. Moreover, in series [3] (LDAO), the “Tm in LDAO” value came out at 23 °C. For the same molecule, in series [3] (NG (nonylglucoside)), the “Tm in NG” value worked out at 25 °C. The “Tm in OG” value in series [3] (OG (octylglucoside)) was found to be 17 °C. Besides, the “difference in Tm between βAR-m23 and βAR34-424” value in series [3] (solubilised in either DDM or DM) is “about 20 °C”. Besides, the “increase in Tm compared to βAR34-424 (native protein)” value in series [4] was 21 °C. Also, the “Tm (° C.)” value in series [4] (Table 2) is 52.8 °C and 52.8 ± 1.4 °C. In series [4] (setting [11]), the “Tm with antagonist bound” value came to 55 °C and the “increase in Tm with bound antagonist versus without antagonist” value worked out at 2 °C. Moreover, in series [4] (m4-1 to m4-7 to m4-2, m18 to m23), the “further increase in Tm on adding one mutation to the preceding mutant” value is 3 °C.

For the molecule `C=CCc1ccccc1OC[C@@H](O)CNC(C)C` [alprenolol, (−) alprenolol tartrate salt], in series [5], the 50% effective concentration (EC50) was determined as 112 nM.

“m19: βAR34-424 with R68S, M90V, Y227A, A282L, F327A, F338M as printed (same as m23)”: the “Tm (° C.)” value in series [4] (Table 2) was found to be 49.0 ± 0.8 °C.

Take M90A: βAR34-424 point mutant M90A: the “increase in Tm compared to βAR34-424 (native protein)” value in series [4] worked out at 8 °C.

With “m6-4: βAR34-424 with R68S, Y227A, A234L, A282L”, the “Tm (° C.)” value in series [4] (Table 1) came out at 41.6 ± 0.1 °C.

In the case of m7-7: βAR34-424 with M90V, Y227A, F338M, the “Tm (° C.)” value in series [4] (Table 1) was determined as 45.2 ± 2.0 °C.

Turning to “1-[4,6-propyl-^3H]-dihydroalprenolol [[^3H]-dihydroalprenolol]”, the Kd was 6.5 ± 0.2 nM in series [6] (membranes, n=2, read-out: KD of [3H]-dihydroalprenolol) and 12.5 nM in series [6] (semipurified receptor, read-out: KD for [3H]-DHA binding).

On to “m20: βAR34-424 with R68S, M90V, F327A, A334L”, for which, in series [4] (Table 2), the “Tm (° C.)” value was 48.4 ± 0.7 °C.

On to “m17: βAR34-424 with R68S, M90V, Y227A, V230A, F327A, A334L”, for which the “Tm (° C.)” value in series [4] (Table 2) was 48.2 ± 1.4 °C.

As for “m6-10: βAR34-424 with R68S, Y227A, A282L, A334L”, the “Tm (° C.)” value in series [4] (Table 1) stood at 47.4 ± 1.1 °C.

As to “m18: βAR34-424 with R68S, M90V, Y227A, V230A, A282L, F327A, F338M”, the “Tm (° C.)” value in series [4] (Table 2) stood at 49.6 °C.

B1: Rant 21: A2aR with A54L, T88A, V239A+K122A (protein, UniProt P29274 1-412, looked up, variant A54L T88A V239A K122A)
Adenosine receptor A2a: MPIMGSSVYITVELAIAVLAILGNVLVCWAVWLNSNLQNVTNYFVVSLAAADILVGVLAIPFAITISTGFCAACHGCLFIACFVLVLAQSSIFSLLAIAIDRYIAIRIPLRYNGLVTGTRAAGIIAICWVLSFAIGLTPMLGWNNCGQPKEGKNHSQGCGEGQVACLFEDVVPMNYMVYFNFFACVLVPLLLMLGVYLRIFLAARRQLKQMESQPLPGERARSTLQKEVHAAKSLAIIAGLFALCWLPLHIINCFTFFCPDCSHAPLWLMYLAIVLSHTNSVVNPFIYAYRIREFRQTFRKIIRSHVLRQQEPFKAAGTSARVLAAHGSDGEQVSLRLNGHPPGVWANGSAPHPERRPNGYALGLVSGGSAQESQGNTGLPDVELLSHELKGVCPEPPGLDDPLAQDGAGVS
B1: the “Tm (° C.) − antagonist” value in series [1] (setting [7]) is 41 °C. The “Tm (° C.) + antagonist” value in series [1] (setting [8]) was 49 °C. For the same molecule, the “Tm (ZM241385 bound)” value in series [1] was determined as 49 °C. Moreover, the “Tm (° C.) Antagonist-binding” value was found to be 42 °C in series [2] (0.003% LDAO); 49 °C in series [2] (0.006% FC12); 39 °C in series [2] (0.01% DDM); 28 °C in series [2] (0.1% DM); 22 °C in series [2] (setting [9]); 25 °C in series [2] (0.3% NM). For the same molecule, in series [2] (setting [10]), the “Tm (° C.) Antagonist-binding” value worked out at 23 °C.

These data come from US8748182B2, “Mutant proteins and methods for producing them” (Heptares Therapeutics Limited, priority 2007, dated 2014).
